Data on two molecules can be found in article PMC4184891, “Involvement of the Iron Regulatory Protein from Eisenia andrei Earthworms in the Regulation of Cellular Iron Homeostasis”.

The target of data set [1] is T1, rEaIRP (iron regulatory protein) (Eisenia andrei, UniProt I1VH49 1-890).
T1 sequence: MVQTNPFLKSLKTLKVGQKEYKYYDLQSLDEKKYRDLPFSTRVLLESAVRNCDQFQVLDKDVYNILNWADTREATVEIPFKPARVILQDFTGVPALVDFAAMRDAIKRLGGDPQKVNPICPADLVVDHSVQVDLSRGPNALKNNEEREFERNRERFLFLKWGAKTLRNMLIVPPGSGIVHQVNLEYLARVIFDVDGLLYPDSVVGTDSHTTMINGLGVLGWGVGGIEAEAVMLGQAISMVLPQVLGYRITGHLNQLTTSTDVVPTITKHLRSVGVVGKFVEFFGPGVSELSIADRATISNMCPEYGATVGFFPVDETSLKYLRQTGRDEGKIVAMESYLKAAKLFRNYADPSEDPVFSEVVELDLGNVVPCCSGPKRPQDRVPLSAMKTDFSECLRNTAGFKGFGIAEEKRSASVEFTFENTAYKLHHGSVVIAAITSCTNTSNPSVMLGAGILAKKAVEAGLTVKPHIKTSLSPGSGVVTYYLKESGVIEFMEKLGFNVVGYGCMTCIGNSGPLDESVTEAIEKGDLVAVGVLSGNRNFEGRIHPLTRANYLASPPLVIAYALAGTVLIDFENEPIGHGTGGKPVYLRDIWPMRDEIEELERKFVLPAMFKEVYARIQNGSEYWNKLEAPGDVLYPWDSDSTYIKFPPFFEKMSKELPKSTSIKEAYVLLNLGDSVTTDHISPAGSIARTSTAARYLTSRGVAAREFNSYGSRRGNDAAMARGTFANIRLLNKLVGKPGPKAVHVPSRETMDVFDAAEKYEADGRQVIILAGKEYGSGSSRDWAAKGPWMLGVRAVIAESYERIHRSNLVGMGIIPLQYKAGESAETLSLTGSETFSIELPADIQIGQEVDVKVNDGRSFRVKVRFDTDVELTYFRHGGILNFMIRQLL
In words: EMSA; 6 nM RNA, 5-150 nM protein, tRNA; complex visible at 20 nM, distinct at 50 nM; low affinity; competed by unlabeled EAconsIRE; LightShift RNA EMSA kit binding buffer (composition not given), 5% glycerol, 2 ug tRNA, 20 ul, 30 min room temperature; rEaIRP reduced with 1 mM 2-mercaptoethanol; 6% native PAGE in 0.5X TBE; pH and salt not given; liver extract lanes left out (protein not identified). As to conditions: protein: recombinant; tags: N-terminal 6xHis (pRSET B); label: biotin; hairpin; optimal fold has unpaired U one nt closer to the loop instead of bulged C. On the technique in general: A gel shift assay detects complexes by their altered migration in electrophoresis.

Data set [2] has as its target T1, rEaIRP (iron regulatory protein). In words: EMSA; 6 nM RNA, 50 nM protein, tRNA; reduced by 200-fold unlabeled MAMconsIRE; LightShift RNA EMSA kit binding buffer (composition not given), 5% glycerol, 2 ug tRNA, 20 ul, 30 min room temperature; rEaIRP reduced with 1 mM 2-mercaptoethanol; 6% native PAGE in 0.5X TBE; pH and salt not given; liver extract lanes left out (protein not identified). As to conditions: protein: recombinant; tags: N-terminal 6xHis (pRSET B); label: biotin; hairpin with bulged C.

Take GGGUGCUUUGCUGCGUCAGUGUGCGUGCGAGCUAA (structured_RNA, Bio-11-UTP incorporated in transcription (probe)) [EAconsIRE]: the binding result in data set [1] was “binds”.

Take GGGUUUCCUGCUUCAACAGUGCUUGGACGGAACCC (structured_RNA, Bio-11-UTP incorporated in transcription (probe)) [MAMconsIRE]: in data set [2], the binding result is on record as “binds”.
